Patent US20250154263A1 (FEINSTEIN INSTITUTES FOR MEDICAL RESEARCH, published 2025)
One block for each binder: values may come before it.

Molecular target: T1, CLECL1 on the cell surface (CLECL1+ CLL PF cells) (human, UniProt Q8IZS7 1-167)
T1 construct: Native CLECL1 on patient CLL cells or the MEC1 CLL line; also called DCAL-1
T1 sequence: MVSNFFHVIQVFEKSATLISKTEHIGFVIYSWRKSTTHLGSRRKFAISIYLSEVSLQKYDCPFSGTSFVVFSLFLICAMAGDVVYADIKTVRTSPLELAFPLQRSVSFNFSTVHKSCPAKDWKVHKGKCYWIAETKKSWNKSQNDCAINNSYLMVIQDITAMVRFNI
Assay: flow cytometry (FIG. 8E; cells not named in the legend)

binding result: binds
B1: mAb 17.2 (antibody, mouse IgG1, V domains shown)
VH: EVQLQQSGAELVRSGASVKLSCTTSGFNIKDFYIHWVRQRPEQGLEWIGWIDPKNDDTEYAPRFQGKATVTADTSSNTAYLHLSGLTSEDTAVYYCNGRYPTMDFWGQGTSVT
VL: EIVLTQSPITMTTSPGEKITITCSASSSISSHYLHWYQQKPGFSPKLLIYRASNLASGVPTRFSGSGSGTSYSLTIDTMEAEDVATYFCQQGSSLPLTFGAGTKLELK
notes: also called 17.2.3; hybridoma #17

binding result: binds
B2: mAb 243.6 (antibody, mouse IgG1, V domains shown)
VH: EVQLQQSGTVLVRSGASVKLSCTASGFNIKEYYIHWVKQRPEQGLEWIAWIDLENGESEYAPKFQGKATLTADTSSNTAYLQLSGLTSEDTAVYYCNAFHGNYAHNYAIDYWGQGTSVTVSQ
VL: DIVMSQSPSSLAVSAGEKVTMTCKSSQSLLNSRTRKNYLAWYQQKPGQSPKLLIYWASTRKSGVPDRFTGSGSGTDFTLTISSVQAEDLAVYYCKQSYNLRTFGGGTKLEIK
notes: also called 243.6.1
